Data from US20230212319A1, “NOVEL ANTIGEN BINDING DOMAINS AND SYNTHETIC ANTIGEN RECEPTORS INCORPORATING THE SAME” (University of Southern California, priority 2020, published 2023).

B1: 22120 (protein)
chain: MALPVTALLLPLALLLHAARPDIQMTQSPSSLSASVGDRVTITCKASDHINNWLAWYQQKPGQAPKLLIYGATTLETGVPSRFSGSGSGTDYTLTISSLQPEDFATYYCQQSWNTPWTFGQGTKLEIKRLEGQPKANPTVTLFPPSSEELQANKATLVCLISDFYPGAVTVAWKADGSPVKAGVETTKPSKQSNNKYAASSYLSLTPEQWKSHRSYSCQVTHEGSTVEKTVAPTECSGRADCGFTSESYQQGVLSATILYEILLGKATLYAVLVSALVLMAMVKRKDSRGRAKRSGSGATNFSLLKQAGDVEENPGPTSATMDWIWRILFLVGAATGAHSGPQVQLQESGGGLAQAGGSLRLSCAASGRTFSMGWFRQAPGKEREFVAAITYSGGSPYYASSVRGRFTISRDNAKNTVYLQMNSLKPEDTAVYYCAANPTYGSDWNAENWGQGTQVTVSSGSGGGGSGGGGSGGGGSFEQVQLQQPGAELVKPGASVKMSCKASGYAFSSYWINWMKQKPGQGLEWIGQIYPGDGDTNYNGKFKGRATLTADTSSSTAYMQLSSLTSEDSAVYFCARSITTVVGCAMDYWGQGTSVTVSSTRASTKGPSVFPLAPSSKSTSGGTAALGCLVKDYFPEPVTVSWNSGALTSGVHTFPAVLQSSGLYSLSSVVTVPSSSLGTQTYICNVNHKPSNTKVDKRVEPKSCIPEDTFFPSPESSCDVKLVEKSFETDTNLNFQNLSVIGFRILLLKVAGFNLLMTLRLWSSRAKRSGSGVKQTLNFDLLKLAGDVESNPGPSRGHMTEYKPTVRLATRDDVPRAVRTLAAAFADYPATRHTVDPDRHIERVTELQELFLTRVGLDIGKVWVADDGAAVAVWTTPESVEAGAVFAEIGPRMAELSGSRLAAQQQMEGLLAPHRPKEPAWFLATVGVSPDHQGKGLGSAVVLPGVEAAERAGVPAFLETSAPRNLPFYERLGFTVTADVEVPEGPRTWCMTRKPGA
B2: 22113 (protein)
chain: MALPVTALLLPLALLLHAARPDIQMTQSPSSLSASVGDRVTITCKASDHINNWLAWYQQKPGQAPKLLIYGATTLETGVPSRFSGSGSGTDYTLTISSLQPEDFATYYCQQSWNTPWTFGQGTKLEIKRLEDLKNVFPPEVAVFEPSKAEIAHTQKATLVCLATGFYPDHVELSWWVNGKEVHSGVCTDPQPLKEQPALNDSRYCLSSRLRVSATFWQNPRNHFRCQVQFYGLSENDEWTQDRAKPVTQIVSAEAWGRADCGITSASYHQGVLSATILYEILLGKATLYAVLVSALVLMAMVKRKDSRGRAKRSGSGATNFSLLKQAGDVEENPGPTSMDWIWRILFLVGAATGAHSGPQVQLQESGGGLAQAGGSLRLSCAASGRTFSMGWFRQAPGKEREFVAAITYSGGSPYYASSVRGRFTISRDNAKNTVYLQMNSLKPEDTAVYYCAANPTYGSDWNAENWGQGTQVTVSSGSGGGGSGGGGSGGGGSFEQVQLQQPGAELVKPGASVKMSCKASGYAFSSYWINWMKQKPGQGLEWIGQIYPGDGDTNYNGKFKGRATLTADTSSSTAYMQLSSLTSEDSAVYFCARSITTVVGCAMDYWGQGTSVTVSSTRIQNPDPAVYQLRDSKSSDKSVCLFTDFDSQTNVSQSKDSDVYITDKCVLDMRSMDFKSNSAVAWSNKSDFACANAFNNSIIPEDTFFPSSDVPCDVKLVEKSFETDTNLNFQNLSVIGFRILLLKVAGFNLLMTLRLWSSRAKRSGSGVKQTLNFDLLKLAGDVESNPGPSRGHMTEYKPTVRLATRDDVPRAVRTLAAAFADYPATRHTVDPDRHIERVTELQELFLTRVGLDIGKVWVADDGAAVAVWTTPESVEAGAVFAEIGPRMAELSGSRLAAQQQMEGLLAPHRPKEPAWFLATVGVSPDHQGKGLGSAVVLPGVEAAERAGVPAFLETSAPRNLPFYERLGFTVTADVEVPEGPRTWCMTRKPGA
B3: 22133 (protein)
chain: MALPVTALLLPLALLLHAARPEVQLVESGGGLVQPGGSLRLSCAASGFSFSDFWMSWVRQAPGKGLEWVATISQAGSEKDYVDSVKGRFTISRDNAKKSLYLQMNSLRAEDTAVYYCASGVYSFDYRGQGTLVTVSSGTGGGGSGGGGSGGGGSEFDIQMTQSPSSLSASVGDRVTITCKASDHINNWLAWYQQKPGQAPKLLIYGATTLETGVPSRFSGSGSGTDYTLTISSLQPEDFATYYCQQSWNTPWTFGQGTKLEIKRLEDLKNVFPPEVAVFEPSKAEIAHTQKATLVCLATGFYPDHVELSWWVNGKEVHSGVCTDPQPLKEQPALNDSRYCLSSRLRVSATFWQNPRNHFRCQVQFYGLSENDEWTQDRAKPVTQIVSAEAWGRADCGITSASYHQGVLSATILYEILLGKATLYAVLVSALVLMAMVKRKDSRGRAKRSGSGATNFSLLKQAGDVEENPGPTSATMDWIWRILFLVGAATGAHSGPQVQLQESGGGLAQAGGSLRLSCAASGRTFSMGWFRQAPGKEREFVAAITYSGGSPYYASSVRGRFTISRDNAKNTVYLQMNSLKPEDTAVYYCAANPTYGSDWNAENWGQGTQVTVSSGSGGGGSGGGGSGGGGSFEQVQLQQPGAELVKPGASVKMSCKASGYAFSSYWINWMKQKPGQGLEWIGQIYPGDGDTNYNGKFKGRATLTADTSSSTAYMQLSSLTSEDSAVYFCARSITTVVGCAMDYWGQGTSVTVSSTRIQNPDPAVYQLRDSKSSDKSVCLFTDFDSQTNVSQSKDSDVYITDKCVLDMRSMDFKSNSAVAWSNKSDFACANAFNNSIIPEDTFFPSSDVPCDVKLVEKSFETDTNLNFQNLSVIGFRILLLKVAGFNLLMTLRLWSSRAKRSGSGVKQTLNFDLLKLAGDVESNPGPSRGHMTEYKPTVRLATRDDVPRAVRTLAAAFADYPATRHTVDPDRHIERVTELQELFLTRVGLDIGKVWVADDGAAVAVWTTPESVEAGAVFAEIGPRMAELSGSRLAAQQQMEGLLAPHRPKEPAWFLATVGVSPDHQGKGLGSAVVLPGVEAAERAGVPAFLETSAPRNLPFYERLGFTVTADVEVPEGPRTWCMTRKPGA
B4: 22112 (protein)
chain: MALPVTALLLPLALLLHAARPDIQMTQSPSSLSASVGDRVTITCKASDHINNWLAWYQQKPGQAPKLLIYGATTLETGVPSRFSGSGSGTDYTLTISSLQPEDFATYYCQQSWNTPWTFGQGTKLEIKRLEDLKNVFPPEVAVFEPSEAEISHTQKATLVCLATGFYPDHVELSWWVNGKEVHSGVCTDPQPLKEQPALNDSRYCLSSRLRVSATFWQNPRNHFRCQVQFYGLSENDEWTQDRAKPVTQIVSAEAWGRADCGFTSESYQQGVLSATILYEILLGKATLYAVLVSALVLMAMVKRKDSRGRAKRSGSGATNFSLLKQAGDVEENPGPTSATMDWIWRILFLVGAATGAHSGPEVQLVESGGGLVQAGGSLRLSCAASGRTFTMGWFRQAPGKEREFVAAISLSPTLAYYADSVKGRFTISRDNAKNTVVLQMNSLKPEDTALYYCAADRKSVMSIRPDYWGQGTQVTVSSGSGGGGSGGGGSGGGGSFEQVQLQQPGAELVKPGASVKMSCKASGYAFSSYWINWMKQKPGQGLEWIGQIYPGDGDTNYNGKFKGRATLTADTSSSTAYMQLSSLTSEDSAVYFCARSITTVVGCAMDYWGQGTSVTVSSTRIQNPDPAVYQLRDSKSSDKSVCLFTDFDSQTNVSQSKDSDVYITDKCVLDMRSMDFKSNSAVAWSNKSDFACANAFNNSIIPEDTFFPSPESSCDVKLVEKSFETDTNLNFQNLSVIGFRILLLKVAGFNLLMTLRLWSSRAKRSGSGVKQTLNFDLLKLAGDVESNPGPSRGHMTEYKPTVRLATRDDVPRAVRTLAAAFADYPATRHTVDPDRHIERVTELQELFLTRVGLDIGKVWVADDGAAVAVWTTPESVEAGAVFAEIGPRMAELSGSRLAAQQQMEGLLAPHRPKEPAWFLATVGVSPDHQGKGLGSAVVLPGVEAAERAGVPAFLETSAPRNLPFYERLGFTVTADVEVPEGPRTWCMTRKPGA

Tested on: RAJI cells
Assay: JNG assay, co-culture with RAJI cells
Assay type: cell-based
Conditions: JNG cells expressing construct, co-culture with Raji
How it was run: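 Read-out is NFAT-driven GFP measured by flow cytometry after ~4–18 h co-culture of SAR-expressing JNG cells with target cells (E:T about 1:2). SARs were introduced by lentiviral spinfection and selected with puromycin or blasticidin when possible; scores (+/- to 5+ ≈ 5–50% GFP+) are relative to parental JNG cells.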

Molecule	NFAT-GFP ASSAY: Raji
B1	4+ (refer to approximately 5%, 10%, 20%, 30%, 40% and 50% GFP positive cells)
B2	5+ (refer to approximately 5%, 10%, 20%, 30%, 40% and 50% GFP positive cells)

Tested on: RAJI-CD19-KO cells
Assay: JNG assay, co-culture with RAJI-CD19-KO cells
Assay type: cell-based
Conditions: co-culture with Raji-CD19-KO
Protocol: Cellular supernatant is collected and assayed for the induction of cytokines (e.g., IL2).
JNG (Jurkat cells expressing EGFP under an NFAT promoter) were infected with lentiviral vectors encoding different single chain and multi-chain SARs by spinfection in the presence of 8 µg/ml of Polybrene® (Sigma, Catalog no. H9268). The Jurkat-NFAT-GFP cells are engineered in such a way that the IL-2 promoter, which carries NFAT binding sites, is cloned upstream of the GFP gene. These cells have been used to study signaling via TCR and CAR. The different SARs were stably expressed in Jurkat NFAT-GFP cells by lentiviral mediated gene transfer, followed by selection with puromycin or blasticidin. No drug selection was used in case the construct lacked an antibiotic resistance gene. The SAR-expressing Jurkat-NFAT-GFP cells were cocultured with the target cells at E:T ratio of approximately 1:2 for approximately 4 hours to 18 hours. When the interaction between SIRs and their target antigen results in activation of the NFAT pathway, GFP expression is induced. […] GFP expression was monitored by FACS analysis. The Jurkat-NFAT-GFP (parental) cells were used as control. The structure of different constructs can be determined based on their names. […] The sequence of the other constructs in the table can be similarly determined from their names and by referring to the different Tables of this disclosure that provide the names and SEQ ID NO of the different modules. Alternatively, the composition and modular architecture of the different SAR constructs can be determined from their sequences by bioinformatics tools, including using nucleic acid and amino acids homology searches. A SAR is considered positive in the assay in case the SAR expressing Jurkat-NFAT-GFP cells show greater % GFP positive cells when cultured with the target cell line as compared to parental Jurkat-NFAT-GFP cells. […] In general, the number +/-, +, 2+, 3+, 4+, 5+ refer to approximately 5%, 10%, 20%, 30%, 40% and 50% GFP positive cells. The % of GFP induction in the above assay is dependent not only the relative strength of the SAR but also, among other factors, on the relative level of expression of the SAR in the JNG cells and the relative level of expression of the target antigen in the target cell line. To control for the difference in gene transduction efficiency of the different SAR constructs, the experiment was conducted with JNG cells transduced with SAR constructs co-expressing a drug resistance gene (e.g., puromycin or PAC) followed by drug selection to generate a stable population of SAR-expressing cells. It is to be noted that the drug resistance gene (e.g., PAC) in the SAR constructs is optional and in vivo studies were conducted with SAR constructs lacking the PAC gene.

Molecule	NFAT-GFP ASSAY: Raji-CD19-KO
B3	5+ (refer to approximately 5%, 10%, 20%, 30%, 40% and 50% GFP positive cells)
B1	3+ (refer to approximately 5%, 10%, 20%, 30%, 40% and 50% GFP positive cells)
B4	5+ (refer to approximately 5%, 10%, 20%, 30%, 40% and 50% GFP positive cells)
B2	4+ (refer to approximately 5%, 10%, 20%, 30%, 40% and 50% GFP positive cells)
